Changes are numbered by the printed parent chain.
Legend:
Assay in all cases: EMSA; EC50; 10 mM KH2PO4, 100 mM NaCl, 0.01% IGEPAL, 5 nM Cy5 DNA, 30 min at 37 C; pH not stated; 8% gel in 1x TBE at 4 C
Details in all cases: protein: recombinant; tags: N-terminal His6 (pET-28a NdeI-XhoI); chain copies: 2; label: 5' Cy5 on forward strand; blunt
Banf1 H7Y = molecular target: T1, Banf1 H7Y (Homo sapiens, UniProt O75531 1-89, H7Y)
T1 sequence: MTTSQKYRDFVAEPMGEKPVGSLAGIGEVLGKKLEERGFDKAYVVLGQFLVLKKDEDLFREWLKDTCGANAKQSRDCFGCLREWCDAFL

Banf1 N70T = molecular target: T2, Banf1 N70T (Homo sapiens, UniProt O75531 1-89, N70T)
T2 sequence: T1 sequence with Y7H, N70T

Banf1 R75W = molecular target: T3, Banf1 R75W (Homo sapiens, UniProt O75531 1-89, R75W)
T3 sequence: T1 sequence with Y7H, R75W

B1: Cy5 40 bp dsDNA (dsDNA)
DNA 1: AGGAGCGCCAGACCCACCAAGAGCCCTCTATCGGTTGGGA
DNA 2: TCCCAACCGATAGAGGGCTCTTGGTGGGTCTGGCGCTCCT
apparent K (half saturation) (Banf1 H7Y): 26.1 ± 5.02 nM | apparent K (half saturation) (Banf1 N70T): 34.9 ± 4.38 nM | apparent K (half saturation) (Banf1 R75W): 27.8 ± 3.17 nM

Source: publication PMC8606531, “The Impact of Rare Human Variants on Barrier-To-Auto-Integration Factor 1 (Banf1) Structure and Function”
